system: K4 kissing-loop RNA reporter; assay: apparent KD of K4 kissing-loop reporter; higher = weaker reporter binding; settings: Eterna round: R107; input ligand: FMN 200 uM
Method: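 RNA-MaP round R107: designed RNA switches with theophylline, tryptophan, arginine or FMN aptamers are transcribed on-chip within common flanks. They are titrated with a labelled K4 kissing-loop RNA reporter in RNA-MaP buffer (100 mM Tris pH 7.5, 80 mM KCl, 4 mM MgCl2), without ligand or with the indicated ligand. Median apparent KD per design.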
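Further: bound reporter read as fluorescence of individual clusters on recovered sequencing chips by microscopy, with normalized cluster intensities fitted with a binding model.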

| Sequence | apparent KD of K4 kissing-loop reporter [nM] |
| --- | --- |
| CGAGUGAUGUUCGUUUUAAAAUUUUUUUGACAGGAUAUGCGGAAACGCAGAAGGGUCACCUUUGAGUUAAAAGAAAUUAAAUUUU [Ex FMN 16] | 175 |
| UCUGGUAUAUCUGAUACCAGAGUAUAGUAUCAAUUGCAUAUGGAGUGAUGUUCCAUAUAACUCCCUUGGCAGCAGAUCUAUCUCU [Same State Theophylline B GF 25] | 292 |
| AGCUCAGAGUGACUCGAUAAGAGUCACAAACGAGGACCGGUACGGCCGCCACUCGAAAUAACGAGAGUGAUGUUCUUGCUGAGCA [FiskerMod 7 - Jieux - Same State Tryptophan A] | 1320 |
| AAACAUCACUGGGAGUGAUGUUCUCAGUGACGAGGACCGGUACGGCCGCCACUCGCGAGAGAUAUAGAUAAGUAAUGACAUCAUU [Excl Tryptophan A V4] | 347 |
| UGUACCGAGUCAGGAUAUGGCGUCGAAAGACGAAUUCUAGUGAUGUUAGGGAUCUGCGAAAGCAGUUCAGAAGGGACUUGGUACU [FmnBS 26 U36+U67] | 243 |
| AUUUUGGUUUAGAGUGAUGUUCCUUGUAUUCGAGGACCGGUACGGCCGCCACUCGAAUAGAAAAGAAAAGAAAUGAGUGAUGUUU [BDazzled - #4 SS Tryptophan A] | 519 |
| GGAUAGGACAGAGGAUAUGGUAGUGAUGUUACCAAACUGGUUACUCUUGUCAGAAAACUGGCAUUUCCAGAAGGCUGUCCUAUCG [KL-XFMN-B11] | 599 |
| UGUAUGGACUGAAGGAGCGCUAGGAAAGUGAGUGAUGUUCAUAUAAAAGUAUAAAGGGUUUGGCAGGUAGGUCGCAGUCCAUACU [KL-SSArg B5] | 225 |
| GCAGUGAUGUUGCGGAUGUACAGUGGCGUGCGAGGACCGGUACGGCCGCCACUCGUACAGAGCGAGCUAAUACAUCGAUAGGUGA [whbob_SS_Tryp_A_m5] | 230 |
| GCUAUGGUAGGAAGGAGCGCGGACGAUAUUUAUCGAGUGAUGUUCGAUUAAUUAAUUUUAACGCAGGUAGGUCGCCUACUAUAGC [Arginine B K4 28] | 135 |
| ACGUAUAUCAGAGGAUAUCGUAUUAAUAUUUUAUCUAUAUAGUUUUGCAGUGAUGUUGCAAUUAUUCGAGAAGGCUGAUUUACGA [JR_SSFMNB_Sub024] | 86.1 |
| CUUCAGAUCUGAAGGAGCGCGUUACCAGAAUGCAUCAUAGAGCAGUGAUGUUGCUCUGGAUCGCAGGUAGGUCGCAGAUCUGACG [Arg B Ex t7b] | 196 |
| GCCCGAAAGGGCCGAAGUGUUUGCGGCGAUCGAGGACCGGUACGGCCGCCACUCGUCGAGGCGUUCAGUGAUGUUGAAAGCAUGA | 250 |
| CUCGAGUGAUGUUCCUUUAUUUAUACAGAUACCAGUGAAUUUUAACACCCUUGGCAGCUGGUUGUAUCUUUGUUUUUUACACAUG [JR_Nu_ExcTheophyA_Sub025] | 204 |
| UGUCAUUGGUCGGCCGCCACUUCAUGUAGAGUGAUGUUCUGUAGGACGGAUCGAAAGAUCUGUCGAAGGACCGGGACCGAUGACU [FiskerMod 14 - Jieux - Same State - Tryptophan B] | 818 |
| UGCCGCAAGGCGAGCGCUCCCACUCCGGAAGGAGCGCCCGUAAGGGCAGGUAGGUCGCCGGAGUGAUGUUCCGGUGGAGGGCUCG [#2 Exclusion - Arginine A Attempt #24 (Inspired by Omei)] | 1270 |
| UGUGUUUACCUGACUCAGUGAUGUUGAGAAGGAGCGUGCGAAAGCACAGGUAGGUCGCUCAAUCCUUAAUCAGGUGAGCACUAAA [#SwitchBubble 13 #K4Early] | 394 |

same assay, conditions: Eterna round: R107; input ligand: arginine 13.2 mM

| Sequence | apparent KD of K4 kissing-loop reporter [nM] |
| --- | --- |
| CGAGUGAUGUUCGUUUUAAAAUUUUUUUGACAGGAUAUGCGGAAACGCAGAAGGGUCACCUUUGAGUUAAAAGAAAUUAAAUUUU [Ex FMN 16] | 223 |
| UCUGGUAUAUCUGAUACCAGAGUAUAGUAUCAAUUGCAUAUGGAGUGAUGUUCCAUAUAACUCCCUUGGCAGCAGAUCUAUCUCU [Same State Theophylline B GF 25] | 308 |
| AGCUCAGAGUGACUCGAUAAGAGUCACAAACGAGGACCGGUACGGCCGCCACUCGAAAUAACGAGAGUGAUGUUCUUGCUGAGCA [FiskerMod 7 - Jieux - Same State Tryptophan A] | 487 |
| AAACAUCACUGGGAGUGAUGUUCUCAGUGACGAGGACCGGUACGGCCGCCACUCGCGAGAGAUAUAGAUAAGUAAUGACAUCAUU [Excl Tryptophan A V4] | 298 |
| UGUACCGAGUCAGGAUAUGGCGUCGAAAGACGAAUUCUAGUGAUGUUAGGGAUCUGCGAAAGCAGUUCAGAAGGGACUUGGUACU [FmnBS 26 U36+U67] | 288 |
| AUUUUGGUUUAGAGUGAUGUUCCUUGUAUUCGAGGACCGGUACGGCCGCCACUCGAAUAGAAAAGAAAAGAAAUGAGUGAUGUUU [BDazzled - #4 SS Tryptophan A] | 267 |
| GGAUAGGACAGAGGAUAUGGUAGUGAUGUUACCAAACUGGUUACUCUUGUCAGAAAACUGGCAUUUCCAGAAGGCUGUCCUAUCG [KL-XFMN-B11] | 75.1 |
| UGUAUGGACUGAAGGAGCGCUAGGAAAGUGAGUGAUGUUCAUAUAAAAGUAUAAAGGGUUUGGCAGGUAGGUCGCAGUCCAUACU [KL-SSArg B5] | 344 |
| GCAGUGAUGUUGCGGAUGUACAGUGGCGUGCGAGGACCGGUACGGCCGCCACUCGUACAGAGCGAGCUAAUACAUCGAUAGGUGA [whbob_SS_Tryp_A_m5] | 212 |
| GCUAUGGUAGGAAGGAGCGCGGACGAUAUUUAUCGAGUGAUGUUCGAUUAAUUAAUUUUAACGCAGGUAGGUCGCCUACUAUAGC [Arginine B K4 28] | 82.2 |
| ACGUAUAUCAGAGGAUAUCGUAUUAAUAUUUUAUCUAUAUAGUUUUGCAGUGAUGUUGCAAUUAUUCGAGAAGGCUGAUUUACGA [JR_SSFMNB_Sub024] | 95.6 |
| CUUCAGAUCUGAAGGAGCGCGUUACCAGAAUGCAUCAUAGAGCAGUGAUGUUGCUCUGGAUCGCAGGUAGGUCGCAGAUCUGACG [Arg B Ex t7b] | 189 |
| GCCCGAAAGGGCCGAAGUGUUUGCGGCGAUCGAGGACCGGUACGGCCGCCACUCGUCGAGGCGUUCAGUGAUGUUGAAAGCAUGA | 257 |
| CUCGAGUGAUGUUCCUUUAUUUAUACAGAUACCAGUGAAUUUUAACACCCUUGGCAGCUGGUUGUAUCUUUGUUUUUUACACAUG [JR_Nu_ExcTheophyA_Sub025] | 128 |
| UGUCAUUGGUCGGCCGCCACUUCAUGUAGAGUGAUGUUCUGUAGGACGGAUCGAAAGAUCUGUCGAAGGACCGGGACCGAUGACU [FiskerMod 14 - Jieux - Same State - Tryptophan B] | 725 |
| UGCCGCAAGGCGAGCGCUCCCACUCCGGAAGGAGCGCCCGUAAGGGCAGGUAGGUCGCCGGAGUGAUGUUCCGGUGGAGGGCUCG [#2 Exclusion - Arginine A Attempt #24 (Inspired by Omei)] | 283 |
| UGUGUUUACCUGACUCAGUGAUGUUGAGAAGGAGCGUGCGAAAGCACAGGUAGGUCGCUCAAUCCUUAAUCAGGUGAGCACUAAA [#SwitchBubble 13 #K4Early] | 507 |

same assay, conditions: Eterna round: R107; input ligand: none

| Sequence | apparent KD of K4 kissing-loop reporter [nM] |
| --- | --- |
| CGAGUGAUGUUCGUUUUAAAAUUUUUUUGACAGGAUAUGCGGAAACGCAGAAGGGUCACCUUUGAGUUAAAAGAAAUUAAAUUUU [Ex FMN 16] | 198 |
| UCUGGUAUAUCUGAUACCAGAGUAUAGUAUCAAUUGCAUAUGGAGUGAUGUUCCAUAUAACUCCCUUGGCAGCAGAUCUAUCUCU [Same State Theophylline B GF 25] | 325 |
| AGCUCAGAGUGACUCGAUAAGAGUCACAAACGAGGACCGGUACGGCCGCCACUCGAAAUAACGAGAGUGAUGUUCUUGCUGAGCA [FiskerMod 7 - Jieux - Same State Tryptophan A] | 976 |
| AAACAUCACUGGGAGUGAUGUUCUCAGUGACGAGGACCGGUACGGCCGCCACUCGCGAGAGAUAUAGAUAAGUAAUGACAUCAUU [Excl Tryptophan A V4] | 354 |
| UGUACCGAGUCAGGAUAUGGCGUCGAAAGACGAAUUCUAGUGAUGUUAGGGAUCUGCGAAAGCAGUUCAGAAGGGACUUGGUACU [FmnBS 26 U36+U67] | 342 |
| AUUUUGGUUUAGAGUGAUGUUCCUUGUAUUCGAGGACCGGUACGGCCGCCACUCGAAUAGAAAAGAAAAGAAAUGAGUGAUGUUU [BDazzled - #4 SS Tryptophan A] | 362 |
| GGAUAGGACAGAGGAUAUGGUAGUGAUGUUACCAAACUGGUUACUCUUGUCAGAAAACUGGCAUUUCCAGAAGGCUGUCCUAUCG [KL-XFMN-B11] | 92.2 |
| UGUAUGGACUGAAGGAGCGCUAGGAAAGUGAGUGAUGUUCAUAUAAAAGUAUAAAGGGUUUGGCAGGUAGGUCGCAGUCCAUACU [KL-SSArg B5] | 234 |
